Consider eight proteins from article PMC3724922 (PLoS ONE, 2013).

Substitutions are numbered along the chain they refer to. In names and notes the source's numbering stands.

Series [1] concerns the molecule itself. Description: native gel or EMSA; purified recombinant proteins, non-reducing, non-denaturing electrophoresis (SDS- and DTT-free loading buffer), immunoblot with anti-laforin or anti-HIS antibody; self-association, monomer and dimer bands.
Series [2] deals with the molecule itself. Description: native gel or EMSA; purified recombinant proteins incubated with 10 mM H2O2, then non-reducing, non-denaturing electrophoresis, anti-laforin immunoblot.

B1: laforin C109S/110S, recombinant, no epitope tag (enzyme, human, UniProt O95278 1-331, looked up)
chain: MRFRFGVVVPPAVAGARPELLVVGSRPELGRWEPRGAVRLRPAGTAAGDGALALQEPGLWLGEVELAAEEAAQDGAEPGRVDTFWYKFLKREPGGELSWEGNGPHHDRSSTYNENNLVDGVYCLPIGHWIEATGHTNEMKHTTDFYFNIAGHQAMHYSRILPNIWLGSCPRQVEHVTIKLKHELGITAVMNFQTEWDIVQNSSGCNRYPEPMTPDTMIKLYREEGLAYIWMPTPDMSTEGRVQMLPQAVCLLHALLEKGHIVYVHCNAGVGRSTAAVCGWLQYVMGWNLRKVQYFLMAKRPAVYIDEEALARAQEDFFQKFGKVRSSVCSL
notes: laforin, human, 331 amino acids (EPM2A), double mutant C109S/110S; source: E. coli BL21 (RIL), pET21b+, purified (amylose resin)
B1: the binding result in series [1] is listed as “binds”.

B2: laforin wild type, recombinant, no epitope tag (enzyme, human, UniProt O95278 1-331, looked up)
chain: B1 chain with S109C, S110C
notes: laforin, human, a 331 amino acid protein encoded by EPM2A; amplified from pEG202-laforin into pET21b+ (NdeI, NotI); also called laforin WT; wt laforin; source: E. coli BL21 (RIL), pET21b+-laforin, purified (amylose resin)
Take B2: the binding result in series [2] was “binds”.

B3: laforin C123S, recombinant, no epitope tag (enzyme, human, UniProt O95278 1-331, looked up)
chain: B1 chain with S109C, S110C, C123S
notes: laforin, human, 331 amino acids (EPM2A), mutant C123S; source: E. coli BL21 (RIL), pET21b+, purified (amylose resin)
Regarding B3, in series [1], the binding result was “binds”.

B4: laforin C266S, recombinant, no epitope tag (enzyme, human, UniProt O95278 1-331, looked up)
chain: B1 chain with S109C, S110C, C266S
notes: laforin, human, 331 amino acids (EPM2A), catalytic cysteine mutant C266S; source: E. coli BL21 (RIL), pET21b+, purified (amylose resin)
For B4, the binding result in series [1] is on record as “binds”.

B5: laforin C250S, recombinant, no epitope tag (enzyme, human, UniProt O95278 1-331, looked up)
chain: B1 chain with S109C, S110C, C250S
notes: laforin, human, 331 amino acids (EPM2A), mutant C250S; source: E. coli BL21 (RIL), pET21b+, purified (amylose resin)
On to B5, for which the binding result in series [1] is given as “binds”.

B6: wild type laforin with an amino-terminal HIS6 epitope (enzyme, human, UniProt O95278 1-331, looked up)
chain: B1 chain with S109C, S110C
notes: laforin, human, 331 amino acids (EPM2A); The plasmid of the His6 constructs is not described in the methods; also called laforin-WT; WT; not shown: His6, N-terminal, kept
On to B6, for which, in series [1], the binding result is “binds”.

B7: laforin C169S, recombinant, no epitope tag (enzyme, human, UniProt O95278 1-331, looked up)
chain: B1 chain with S109C, S110C, C169S
notes: laforin, human, 331 amino acids (EPM2A), mutant C169S; source: E. coli BL21 (RIL), pET21b+, purified (amylose resin)
As for B7, the binding result in series [1] was “binds”.

B8: laforin C205S, recombinant, no epitope tag (enzyme, human, UniProt O95278 1-331, looked up)
chain: B1 chain with S109C, S110C, C205S
notes: laforin, human, 331 amino acids (EPM2A), mutant C205S; source: E. coli BL21 (RIL), pET21b+, purified (amylose resin)
On to B8, for which, in series [1], the binding result is “binds”.
